Reference: PMC9482650, “Quantitative fragmentomics allow affinity mapping of interactomes” (Nature Communications, 2022)

T1: TJP3_3, O95049
T1 sequence (O95049 375-456, limits assumed, looked up): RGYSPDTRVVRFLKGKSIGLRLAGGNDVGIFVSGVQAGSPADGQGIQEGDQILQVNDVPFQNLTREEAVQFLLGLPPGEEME

T2: SNTA1, Q13424
T2 sequence (Q13424 82-180, limits assumed, looked up): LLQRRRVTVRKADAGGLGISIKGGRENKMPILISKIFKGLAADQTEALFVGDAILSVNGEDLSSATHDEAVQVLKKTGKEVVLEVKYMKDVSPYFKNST

T3: DVL3, Q92997
T3 sequence (Q92997 244-331, limits assumed, looked up): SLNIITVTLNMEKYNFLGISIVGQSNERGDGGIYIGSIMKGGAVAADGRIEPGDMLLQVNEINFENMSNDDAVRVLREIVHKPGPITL

T4: LIN7C, Q9NUP9
T4 sequence (Q9NUP9 88-185, limits assumed, looked up): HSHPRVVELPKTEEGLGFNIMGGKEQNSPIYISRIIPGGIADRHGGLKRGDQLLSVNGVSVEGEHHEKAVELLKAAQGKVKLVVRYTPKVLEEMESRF

T5: APBA3_1, O96018
T5 sequence (O96018 389-490, limits assumed, looked up): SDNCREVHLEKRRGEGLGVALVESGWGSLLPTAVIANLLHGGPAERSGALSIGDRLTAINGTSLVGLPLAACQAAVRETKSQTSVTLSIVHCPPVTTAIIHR

T6: SNTG2, Q9NY99
T6 sequence (Q9NY99 68-166, limits assumed, looked up): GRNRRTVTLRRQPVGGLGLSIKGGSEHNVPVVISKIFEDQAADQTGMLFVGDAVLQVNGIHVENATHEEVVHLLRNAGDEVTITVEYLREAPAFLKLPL

T7: HTRA3, P83110
T7 sequence (P83110 354-453, limits assumed, looked up): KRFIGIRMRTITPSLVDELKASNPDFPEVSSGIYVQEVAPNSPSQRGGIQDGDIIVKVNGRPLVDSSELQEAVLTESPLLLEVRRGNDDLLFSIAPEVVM

T8: RHPN1, Q8TCX5
T8 sequence (Q8TCX5 508-602, limits assumed, looked up): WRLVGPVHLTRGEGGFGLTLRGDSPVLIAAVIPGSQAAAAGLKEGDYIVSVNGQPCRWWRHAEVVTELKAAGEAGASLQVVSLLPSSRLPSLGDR

T9: FRMPD1, Q5SYB0
T9 sequence (Q5SYB0 52-145, limits assumed, looked up): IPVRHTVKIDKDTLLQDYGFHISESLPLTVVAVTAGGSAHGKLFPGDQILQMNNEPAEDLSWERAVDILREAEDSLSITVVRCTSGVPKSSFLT

T10: PDZD7_3, Q9H5P4
T10 sequence (Q9H5P4 857-944, limits assumed, looked up): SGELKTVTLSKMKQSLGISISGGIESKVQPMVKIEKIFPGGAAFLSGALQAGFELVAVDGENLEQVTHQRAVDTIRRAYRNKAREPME

T11: TX1BP3, O14907
T11 sequence (O14907 10-122, limits assumed, looked up): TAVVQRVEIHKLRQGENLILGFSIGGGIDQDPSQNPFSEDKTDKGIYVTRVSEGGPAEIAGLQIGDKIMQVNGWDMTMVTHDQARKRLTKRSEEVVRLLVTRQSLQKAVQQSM

T12: PTPN13_1, Q12923
T12 sequence (Q12923 1088-1188, limits assumed, looked up): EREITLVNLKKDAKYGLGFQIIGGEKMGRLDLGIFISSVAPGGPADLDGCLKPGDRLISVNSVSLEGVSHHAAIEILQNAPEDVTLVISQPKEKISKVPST


biological target: T1, TJP3_3, O95049; assay: holdup assay; parameters: key: below the threshold = too weak to quantify, mostly under pKd 3.1 to 4; conditions: plain residues with an end cap or a label only (N-terminal biotin on a linker: ado-ado)

pKd | Binder
below the threshold | PAPGQHTTQI [STK16, O75716]

biological target: GORASP1, Q9BQQ3; assay: holdup assay; parameters: key: below the threshold = too weak to quantify, mostly under pKd 3.1 to 4; conditions: plain residues with an end cap or a label only (N-terminal biotin on a linker: ado-ado)
Sequence (Q9BQQ3 1-208): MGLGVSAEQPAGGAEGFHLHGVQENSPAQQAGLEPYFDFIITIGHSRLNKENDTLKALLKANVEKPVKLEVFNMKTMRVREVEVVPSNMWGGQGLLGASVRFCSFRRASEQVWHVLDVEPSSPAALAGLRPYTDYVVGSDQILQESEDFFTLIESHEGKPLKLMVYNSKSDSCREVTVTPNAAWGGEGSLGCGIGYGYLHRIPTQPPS

pKd | Binder
below the threshold | PAPGQHTTQI [STK16, O75716]

biological target: GRIP2_3, Q9C0E4; assay: holdup assay; parameters: key: below the threshold = too weak to quantify, mostly under pKd 3.1 to 4; conditions: plain residues with an end cap or a label only (N-terminal biotin on a linker: ado-ado)
Sequence (Q9C0E4 238-339): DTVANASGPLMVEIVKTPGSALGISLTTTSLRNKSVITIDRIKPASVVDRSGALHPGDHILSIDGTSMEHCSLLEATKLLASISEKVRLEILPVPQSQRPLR

pKd | Binder
below the threshold | PAPGQHTTQI [STK16, O75716]

biological target: FRMPD3, Q5JV73; assay: holdup assay; parameters: key: below the threshold = too weak to quantify, mostly under pKd 3.1 to 4; conditions: plain residues with an end cap or a label only (N-terminal biotin on a linker: ado-ado)
Sequence (Q5JV73 12-100): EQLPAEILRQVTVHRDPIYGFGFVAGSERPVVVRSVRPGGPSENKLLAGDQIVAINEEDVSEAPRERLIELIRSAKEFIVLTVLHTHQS

pKd | Binder
below the threshold | PAPGQHTTQI [STK16, O75716]

biological target: T2, SNTA1, Q13424; assay: holdup assay; parameters: key: below the threshold = too weak to quantify, mostly under pKd 3.1 to 4; conditions: plain residues with an end cap or a label only (N-terminal biotin on a linker: ado-ado)

pKd | Binder
below the threshold | PAPGQHTTQI [STK16, O75716]

biological target: Inadl_4, Q8NI35; assay: holdup assay; parameters: key: below the threshold = too weak to quantify, mostly under pKd 3.1 to 4; conditions: plain residues with an end cap or a label only (N-terminal biotin on a linker: ado-ado)
Sequence (Q8NI35 547-651): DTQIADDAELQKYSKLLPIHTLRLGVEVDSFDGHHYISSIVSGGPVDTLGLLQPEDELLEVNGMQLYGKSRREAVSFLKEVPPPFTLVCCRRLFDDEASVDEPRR

pKd | Binder
below the threshold | PAPGQHTTQI [STK16, O75716]

biological target: MAST1, Q9Y2H9; assay: holdup assay; parameters: key: below the threshold = too weak to quantify, mostly under pKd 3.1 to 4; conditions: plain residues with an end cap or a label only (N-terminal biotin on a linker: ado-ado)
Sequence (Q9Y2H9 962-1065): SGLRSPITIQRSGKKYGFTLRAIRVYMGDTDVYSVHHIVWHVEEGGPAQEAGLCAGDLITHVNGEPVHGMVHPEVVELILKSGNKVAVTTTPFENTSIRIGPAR

pKd | Binder
4.37 | PAPGQHTTQI [STK16, O75716]

biological target: T3, DVL3, Q92997; assay: holdup assay; parameters: key: below the threshold = too weak to quantify, mostly under pKd 3.1 to 4; conditions: plain residues with an end cap or a label only (N-terminal biotin on a linker: ado-ado)

pKd | Binder
below the threshold | PAPGQHTTQI [STK16, O75716]

biological target: T4, LIN7C, Q9NUP9; assay: holdup assay; parameters: key: below the threshold = too weak to quantify, mostly under pKd 3.1 to 4; conditions: plain residues with an end cap or a label only (N-terminal biotin on a linker: ado-ado)

pKd | Binder
3.98 | PAPGQHTTQI [STK16, O75716]

biological target: T5, APBA3_1, O96018; assay: holdup assay; parameters: key: below the threshold = too weak to quantify, mostly under pKd 3.1 to 4; conditions: plain residues with an end cap or a label only (N-terminal biotin on a linker: ado-ado)

pKd | Binder
below the threshold | PAPGQHTTQI [STK16, O75716]

biological target: T6, SNTG2, Q9NY99; assay: holdup assay; parameters: key: below the threshold = too weak to quantify, mostly under pKd 3.1 to 4; conditions: plain residues with an end cap or a label only (N-terminal biotin on a linker: ado-ado)

pKd | Binder
below the threshold | PAPGQHTTQI [STK16, O75716]

biological target: ARHGEF12, Q9NZN5-2; assay: holdup assay; parameters: key: below the threshold = too weak to quantify, mostly under pKd 3.1 to 4; conditions: plain residues with an end cap or a label only (N-terminal biotin on a linker: ado-ado)
Sequence (Q9NZN5 other isoform, or with tags, fused parts or gaps): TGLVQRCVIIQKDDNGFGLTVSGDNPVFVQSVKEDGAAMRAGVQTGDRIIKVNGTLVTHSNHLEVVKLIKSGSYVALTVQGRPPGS

pKd | Binder
4.38 | PAPGQHTTQI [STK16, O75716]

biological target: FRMPD2_2, Q68DX3; assay: holdup assay; parameters: key: below the threshold = too weak to quantify, mostly under pKd 3.1 to 4; conditions: plain residues with an end cap or a label only (N-terminal biotin on a linker: ado-ado)
Sequence (Q68DX3 944-1038): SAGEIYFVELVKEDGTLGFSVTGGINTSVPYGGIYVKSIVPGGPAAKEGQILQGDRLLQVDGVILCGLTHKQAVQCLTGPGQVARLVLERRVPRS

pKd | Binder
3.48 | PAPGQHTTQI [STK16, O75716]

biological target: Inadl_5, Q8NI35; assay: holdup assay; parameters: key: below the threshold = too weak to quantify, mostly under pKd 3.1 to 4; conditions: plain residues with an end cap or a label only (N-terminal biotin on a linker: ado-ado)
Sequence (Q8NI35 673-780): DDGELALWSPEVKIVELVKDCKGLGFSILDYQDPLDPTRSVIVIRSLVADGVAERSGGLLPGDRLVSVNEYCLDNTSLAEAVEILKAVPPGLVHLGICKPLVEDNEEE

pKd | Binder
below the threshold | PAPGQHTTQI [STK16, O75716]

biological target: T7, HTRA3, P83110; assay: holdup assay; parameters: key: below the threshold = too weak to quantify, mostly under pKd 3.1 to 4; conditions: plain residues with an end cap or a label only (N-terminal biotin on a linker: ado-ado)

pKd | Binder
below the threshold | PAPGQHTTQI [STK16, O75716]

biological target: PTPN3, P26045; assay: holdup assay; parameters: key: below the threshold = too weak to quantify, mostly under pKd 3.1 to 4; conditions: plain residues with an end cap or a label only (N-terminal biotin on a linker: ado-ado)
Sequence (P26045 505-587): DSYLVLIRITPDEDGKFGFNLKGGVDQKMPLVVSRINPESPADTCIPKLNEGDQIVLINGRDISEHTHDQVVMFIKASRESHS

pKd | Binder
4.21 | PAPGQHTTQI [STK16, O75716]

biological target: FRMPD2_1, Q68DX3; assay: holdup assay; parameters: key: below the threshold = too weak to quantify, mostly under pKd 3.1 to 4; conditions: plain residues with an end cap or a label only (N-terminal biotin on a linker: ado-ado)
Sequence (Q68DX3 770-861): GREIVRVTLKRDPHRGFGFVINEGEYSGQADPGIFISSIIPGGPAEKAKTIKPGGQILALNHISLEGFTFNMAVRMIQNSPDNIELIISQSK

pKd | Binder
below the threshold | PAPGQHTTQI [STK16, O75716]

biological target: T8, RHPN1, Q8TCX5; assay: holdup assay; parameters: key: below the threshold = too weak to quantify, mostly under pKd 3.1 to 4; conditions: plain residues with an end cap or a label only (N-terminal biotin on a linker: ado-ado)

pKd | Binder
4.35 | PAPGQHTTQI [STK16, O75716]

biological target: DLG2_3, Q15700; assay: holdup assay; parameters: key: below the threshold = too weak to quantify, mostly under pKd 3.1 to 4; conditions: plain residues with an end cap or a label only (N-terminal biotin on a linker: ado-ado)

pKd | Binder
3.67 | PAPGQHTTQI [STK16, O75716]

biological target: MAGI2_4, Q86UL8; assay: holdup assay; parameters: key: below the threshold = too weak to quantify, mostly under pKd 3.1 to 4; conditions: plain residues with an end cap or a label only (N-terminal biotin on a linker: ado-ado)
Sequence (Q86UL8 772-865): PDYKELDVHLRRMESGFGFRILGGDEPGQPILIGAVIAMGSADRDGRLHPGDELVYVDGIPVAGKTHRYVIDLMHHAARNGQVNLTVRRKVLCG

pKd | Binder
3.5 | PAPGQHTTQI [STK16, O75716]

biological target: T9, FRMPD1, Q5SYB0; assay: holdup assay; parameters: key: below the threshold = too weak to quantify, mostly under pKd 3.1 to 4; conditions: plain residues with an end cap or a label only (N-terminal biotin on a linker: ado-ado)

pKd | Binder
below the threshold | PAPGQHTTQI [STK16, O75716]

biological target: PDZRN4_1, Q6ZMN7; assay: holdup assay; parameters: key: below the threshold = too weak to quantify, mostly under pKd 3.1 to 4; conditions: plain residues with an end cap or a label only (N-terminal biotin on a linker: ado-ado)
Sequence (Q6ZMN7 213-318): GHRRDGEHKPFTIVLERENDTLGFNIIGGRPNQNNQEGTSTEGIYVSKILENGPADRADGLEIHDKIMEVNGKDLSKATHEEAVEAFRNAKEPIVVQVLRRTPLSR

pKd | Binder
below the threshold | PAPGQHTTQI [STK16, O75716]

biological target: T10, PDZD7_3, Q9H5P4; assay: holdup assay; parameters: key: below the threshold = too weak to quantify, mostly under pKd 3.1 to 4; conditions: plain residues with an end cap or a label only (N-terminal biotin on a linker: ado-ado)

pKd | Binder
5 | PAPGQHTTQI [STK16, O75716]

biological target: T11, TX1BP3, O14907; assay: holdup assay; parameters: key: below the threshold = too weak to quantify, mostly under pKd 3.1 to 4; conditions: plain residues with an end cap or a label only (N-terminal biotin on a linker: ado-ado)

pKd | Binder
4.12 | PAPGQHTTQI [STK16, O75716]

biological target: T12, PTPN13_1, Q12923; assay: holdup assay; parameters: key: below the threshold = too weak to quantify, mostly under pKd 3.1 to 4; conditions: plain residues with an end cap or a label only (N-terminal biotin on a linker: ado-ado)

pKd | Binder
below the threshold | PAPGQHTTQI [STK16, O75716]
